Laboratory results from patent publication US7514069B2, “Tumor-targeted optical contrast agents” (Mallinckrodt Inc., priority 2000, dated 2009).

Legend:
[1] = test system: pancreatic acinar carcinoma (CA20948); test: Imaging of individual organs removed from CA20948 tumor-bearing rat; type: in vivo; conditions: organs removed about 24 hours post administration
Method: Individual organs were removed at about 24 hours post Cytate 1 administration and imaged.

[2] = test system: pancreatic acinar carcinoma expressing the SST-2 receptor (CA20948); test: In vivo fluorescence imaging of rat pancreatic acinar carcinoma (CA20948); set-up: species or system Lewis rat
Source text: (§1) A non-invasive in vivo fluorescence imaging apparatus was employed to assess the efficacy of contrast agents developed for tumor detection in animal models. A LaserMax Inc. laser diode of nominal wavelength 780 nm and nominal power of 40 mW was used. The detector was a Princeton Instruments model RTE/CCD-1317-K/2 CCD camera with a Rodenstock 10 mm F2 lens (stock #542.032.002.20) attached. An 830 nm interference […] (CVI Laser Corp., part # F10-830-4-2) was mounted in front of the CCD input lens such that only emitted fluorescent light from the contrast agent was imaged. Typically, an image of the animal was taken pre-injection of contrast agent. This image was subsequently subtracted (pixel by pixel) from the post injection images. However, the background subtraction was […] done once the animal had been removed from the sample area and returned at a later time for images taken several hours post injection.
The imaging apparatus and the procedure used are described in Example 12. Rat pancreatic acinar carcinoma expressing the SST-2 receptor (CA20948) was induced by solid implant technique in the left flank area, and palpable masses were detected nine days post implant. The images obtained at 2 and 30 minutes post injection are shown in FIG. 7E-F. FIGS. 7E-F are images of a rat with an induced pancreatic acinar carcinoma (CA20948) expressing the SST-2 receptor imaged at two minutes (FIG. 7E) and 30 minutes (FIG. 7F) post injection.
The imaging apparatus and the procedure used are described in Example 12 except that each animal received 500 μl of a 1.0 mg/mL solution of Cytate 1 solution of 25% dimethylsulfoxide in water.
Rat pancreatic acinar carcinoma expressing the SST-2 receptor (CA20948) were induced by solid implant technique in the left flank area, and palpable masses were detected 24 days post implant. Images were obtained at various times post injection.
Cytate 1 was evaluated in the CA20948 Lewis rat model. […] At 27 hours post injection, the animal was again imaged (FIG. 9B).

[3] = Monitoring of the blood clearance profile of peptide-dye conjugates; type: in vivo, Sprague-Dawley or Fischer 344 rats; conditions: bolus injection in lateral tail vein; monitored at 830 nm after excitation at 780 nm
Source text: A laser of appropriate wavelength for excitation of the dye chromophore was directed into one end of a fiber optic bundle and the other end was positioned a few millimeters from the ear of a rat. A second fiber optic bundle was also positioned near the same ear to detect the emitted fluorescent light and the other end was directed into the optics and electronics for data collection. An interference filter (IF) in the collection optics train was used to select emitted fluorescent light of the appropriate wavelength for the dye chromophore.
Sprague-Dawley or Fischer 344 rats were used in these studies. The animals were anesthetized with urethane administered via intraperitoneal injection at a dose of 1.35 g/kg body weight. After the animals had achieved the desired plane of anesthesia, a 21 gauge butterfly with 12″ tubing was placed in the lateral tail vein of each animal and flushed with heparinized saline. The animals were placed onto a heating pad and kept warm throughout the entire study. […]
Incident laser light delivered from the fiber optic was centered on the affixed ear. Data acquisition was then initiated, and a background reading of fluorescence was obtained prior to administration of the test agent. […] The data were analyzed using a standard sigma plot software program for a one compartment model.

[4] = test system: DSL 6A tumors; test: In vivo fluorescence imaging of pancreatic ductal adenocarcinoma (DSL 6A); set-up: species or system male Lewis rats
Source text: as §1
DSL 6A tumors were induced in male Lewis rats in the left flank area by the introduction of material from a solid (donor) implant and the tumors were palpable in approximately 14 days. The animals were anesthetized with xylazine; ketamine; acepromazine 1.5:1.5:0.5 at 0.8 mL/kg via intramuscular injection. The area of the tumor (left flank) was shaved to expose tumor and surrounding surface area. […]

[5] = test system: Prostrate tumors (Dunning R3327-H); test: In vivo fluorescence imaging of prostatic carcinoma (R3327-H); set-up: species or system young male Copenhagen rats
Source text: as §1
The imaging apparatus and the procedure used are described as in Example 12. Prostrate tumors (Dunning R3327-H) were induced in young male Copenhagen rats in the left flank area from a solid implant. These tumors grow very slowly and palpable masses were present 4-5 months post implant. FIGS. 7C-D are images of a rat with an induced prostatic carcinoma tumor (R3327-H) imaged at two minutes (FIG. 7C) and 30 minutes (FIG. 7D) post injection.

[6] = 500 μl of 1.0 mg/mL solution in 25% dimethylsulfoxide in water, CA20948 tumor

| SMILES | organ uptake: adrenals [1] | organ uptake: heart [1] | organ uptake: liver [1] | organ uptake: muscle [1] | organ uptake: pancreas [1] | organ uptake: spleen [1] | organ uptake: tumor tissue [1] | time at which uptake into the tumor was maximal [2, 6] | time at which uptake into the tumor was seen [2, 6] | uptake at 45 minutes in rats with the CA20948 tumor cell line ([2]; 45 minutes post injection) | localization of dye in the tumor ([2]; 45 minutes post injection, CA20948 Lewis rat model) | tumor visualization ([2]; 27 hours post injection, CA20948 Lewis rat model) | persistence of dye fluorescence in the tumor ([2]; CA20948 tumor, post-injection) | fluorescence signal in blood (ear) after bolus injection [3] | dye intensity in the tumor ([2]; 30 minutes post-ICG injection, CA20948 tumor) | perfusion of the agent into the tumor ([2]; CA20948 (pancreatic) tumor line, CCD camera) | dye intensity in the tumor ([4]; 30 minutes post-ICG injection, bolus injection of 0.5 ml aqueous solution of ICG, DSL 6A tumor) | perfusion of the agent into the tumor ([4]; DSL 6/A (pancreatic) tumor line, CCD camera) | dye intensity in the tumor ([5]; 30 minutes post-ICG injection, R3327-H tumor) | perfusion of the agent into the tumor ([5]; Dunning R3327H (prostate) tumor line, CCD camera) |
| --- | --- | --- | --- | --- | --- | --- | --- | --- | --- | --- | --- | --- | --- | --- | --- | --- | --- | --- | --- | --- |
| C[C@@H](O)[C@H](NC(=O)[C@@H]1CSSC[C@H](NC(=O)[C@@H](Cc2ccccc2)NC(=O)CCN2C(=CC=CC=CC=CC3=[N+](CCC(=O)O)c4ccc5ccccc5c4C3(C)C)C(C)(C)c3c2ccc2ccccc32)C(=O)N[C@@H](Cc2ccc(O)cc2)C(=O)N[C@H](Cc2c[nH]c3ccccc23)C(=O)N[C@@H](CCCCN)C(=O)N[C@@H]([C@@H](C)O)C(=O)N1)C(=O)O [Cytate 1, monoOctreotate-Bisethylcarboxymethylindocyanine dye] | high uptake | significantly lower uptake | significantly lower uptake | significantly lower uptake | high uptake | significantly lower uptake | high uptake | about five | two | still quite intense | localization of this dye was observed in the tumor | Tumor visualization was easily observed | remained intense in the tumor for several hours | rapidly increased to a peak value. The signal then decayed as a function of time |  |  |  |  |  |  |
| C[C@@H](O)[C@H](NC(=O)[C@@H]1CSSC[C@H](NC(=O)[C@@H](Cc2ccccc2)NC(=O)CCN2C(=CC=CC=CC=CC3=[N+](CCC(=O)N[C@H](Cc4ccccc4)C(=O)N[C@H]4CSSC[C@@H](C(=O)N[C@H](C(=O)O)[C@@H](C)O)NC(=O)[C@H]([C@@H](C)O)NC(=O)[C@H](CCCCN)NC(=O)[C@@H](Cc5c[nH]c6ccccc56)NC(=O)[C@H](Cc5ccc(O)cc5)NC4=O)c4ccc5ccccc5c4C3(C)C)C(C)(C)c3c2ccc2ccccc32)C(=O)N[C@@H](Cc2ccc(O)cc2)C(=O)N[C@H](Cc2c[nH]c3ccccc23)C(=O)N[C@@H](CCCCN)C(=O)N[C@@H]([C@@H](C)O)C(=O)N1)C(=O)O [Cytate 2, bisOctreotate-Bisethylcarboxymethylindocyanine dye] |  |  |  |  |  |  |  |  |  |  |  |  |  | rapidly increased to a peak value. The signal then decayed as a function of time |  |  |  |  |  |  |
| CC1(C)C(/C=C/C=C/C=C/C=C2\N(CCCCS(=O)(=O)O)c3ccc4ccccc4c3C2(C)C)=[N+](CCCCS(=O)(=O)[O-])c2ccc3ccccc3c21 [ICG, indocyanine green] |  |  |  |  |  |  |  |  |  | mostly cleared |  |  |  |  | considerably diminished and almost absent | only a slight but transient perfusion that was absent after only 30 minutes post injection | considerably diminished | slow perfusion of the agent over time into the tumor | considerably diminished | slow perfusion of the agent over time into the tumor |
